# Positions count from the first letter of the chain named.
# B1: antigen-binding unit ABU-190 (antibody, V domains shown)
# VH: EVQLVESGGGLIQPGGSLRLSCAASGITVSSNYMSWVRQAPGKGLEWVSVIYSGGSTDYADSVKGRFTISRDKSKNTLYLQMNSLRAEDTAVYYCARDLGEAGGMDVWGQGTTVTVSS
# VL: AIQLTQSPSSLSASVGDRVTITCRASQGISSYLAWYQQKPGKAPKLLIYAASTLQSGVPSRFSGSGSGTDFTLTISSLQPEDFATYYCQQLNSYPPAFGGGTKVEIK
# B2: antigen-binding unit ABU-174 (antibody, V domains shown)
# VH: QVQLQQWGAGLLKPSETLSLTCAVYGGSFSDYYWNWIRRPPGKGLEWIGEITHSGSTNYNPSLKSRVTISVDTSKNQFSLKLSSVTAADTAVYYCARGQGYGRVLLWFGEWGQGTLVTVSS
# VL: EIVLTQSPATLSLSPGERATLSCRASQSVSTYLAWYQQKPGQAPRLLIYDASNRATGIPARFSGSGSGTDFTLTISSLEPEDFAVYYCQQRSNWITFGQGTRLEIK
# B3: ABU-373 (antibody, V domains shown)
# VH: B1 VH with D58Y, K73N, D98G, L99G, G100A, E101Y, A102Y, G103Y
# VL: DIQLTQSPSFLSASVGDRVTITCRASQGISSYLAWYQQKPGKAPKLLIYAASTLQSGVPSRFSGSGSGTEFTLTISSLQPEDFATYYCQQLNTYPPFGFGPGTKVDIK
# B4: ABU-391 (antibody, V domains shown)
# VH: EVQLVESGGGLIQPGGSLRLSCAASGFIVSSNYMSWVRQAPGKGLEWVSVIYSGGSTYYADSVKGRFTISRDNSKNTLYLQMNSLRAEDTAVYYCARDYGDYYFDYWGQGTLVTVSS
# VL: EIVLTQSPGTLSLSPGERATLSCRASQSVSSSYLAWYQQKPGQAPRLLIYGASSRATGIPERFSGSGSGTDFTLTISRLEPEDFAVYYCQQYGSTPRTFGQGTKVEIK
# B5: ABU-392 (antibody, V domains shown)
# VH: B4 VH with G26E, S31R, Y79N
# VL: EIVLTQSPGTLSLSPGERATLSCRASQGVSSFLAWYQQKPGQAPRLLIHGASSRATGIPDRFSGSGSGTDFTLTITRLEPEDFAVYYCQQYGSSPRTFGQGTKVEIK
# B6: ABU-395 (antibody, V domains shown)
# VH: B4 VH with L4V, I12V, I28T, S31F, S53P, D72H, L78V, Y102F
# VL: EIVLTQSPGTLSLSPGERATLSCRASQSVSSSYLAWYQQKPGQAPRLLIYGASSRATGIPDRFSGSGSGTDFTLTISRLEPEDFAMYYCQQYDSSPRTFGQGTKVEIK
# B7: ABU-377 (antibody, V domains shown)
# VH: QVQLVESGGGLVQPGGSLRLSCAASGLIVSSNYMSWVRQAPGEGLEWVSVIYSGGSTYYADSVKGRFTISRDTSKNTLYLQMNSLRAEDTAVYYCARARIYTYGPDYWGQGTLVTVSS
# VL: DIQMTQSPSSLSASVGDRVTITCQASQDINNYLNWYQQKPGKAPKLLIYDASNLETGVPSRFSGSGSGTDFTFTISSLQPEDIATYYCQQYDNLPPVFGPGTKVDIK
# B8: ABU-379 (antibody, V domains shown)
# VH: EVQLVESGGGLVQPGGSLRLSCAASGFIVSSNYMSWVRQAPGKGLEWVSVIYSGGSTYYADSVKGRFTISRDNSKNTLYLRMNSLRAEDTAVYYCARAPYCSSRSCETWGQGTLVTVSS
# VL: DIQMTQSPSSLSASVGDRVTITCQASQDIRNYLNWYQQKPGKAPNLLIYDASNLETGVPSRFSGSGSGTDFTFTINSLQPEDIATYYCQQYDNLPITFGQGTRLEIK
# B9: ABU-375 (antibody, V domains shown)
# VH: EVQLVESGGGLVQPGGSLRLSCAASGLTVSSNYMSWVRQAPGKGLEWVSVIYSGGSTFYADSVKGRFTISRDNSKNTLYLQMNSVRAEDTAVYYCARLPYGMDVWGQGTTVTVSS
# VL: DIQMTQSPSSLSASVGDRVTITCQASQDVSKYLNWYQQKPGKAPKLLIHDASNLQTGVPSRFSGGGSGTDFTFTISSLQPEDIATYYCQQYDNLPVTFGGGTKVEIK
# B10: ABU-376 (antibody, V domains shown)
# VH: B9 VH with E46N, F58Y, Q81E, V85L, R86K, A87P
# VL: B8 VL with N45K, Y49H, S63I, N76S
# B11: ABU-380 (antibody, V domains shown)
# VH: EVQLVESGGGLVQPGGSLRLSCAASGFTVSSNYMSWVRQAPGKGLEWVSLIYPGGSTYYADSVEGRFTISRDNSKNTLYLQMNSLRAEDTAVYYCAREIRVITPVEVWGQGTLVTVSS
# VL: B8 VL with R30N, N31K, Q38L, N76S, Q89H, I96R, R103K, L104V
# B12: ABU-386 (antibody, V domains shown)
# VH: EVQLVESGGGLVQPGGSLRLSCAASGVTVSSNYMSWVRQAPGKGLEWVSAVYSGGSTYYADSVKGRFTISRHNSKNTLYLQMKSLRPEDTAIYYCARLINHYYDSSGDGGAFDIWGQGTMVTVSS
# VL: QSALTQPASVSGSPGQSITISCTGTSSDVGSYNLVSWYQQRPGKAPKLILYEVTKRPSGVSNRFSGSKSGNTASLAISGLQAEDEADYYCCSYAGSSTWVFGGGTKLTVL
# B13: ABU-381 (antibody, V domains shown)
# VH: EVQLVESGGGLVQPGGSLRLSCAVSGFIVSRNYMTWVRQAPGKGLEWVSLIYSGGSTFYTNSVKGRFTISRDNSKNTLYLQMDSLRAEDTAVYYCARGPYPRFDYWGQGTLVTVSS
# VL: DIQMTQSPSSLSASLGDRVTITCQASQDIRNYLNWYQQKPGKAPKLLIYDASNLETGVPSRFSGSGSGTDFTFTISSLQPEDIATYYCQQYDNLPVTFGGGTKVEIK
# B14: antigen-binding unit ABU-297 (antibody, V domains shown)
# VH: EVQLLESGGGVVQPGGSLRLSCAASGFAFTTYAMNWVRQAPGRGLEWVSAISDGGGSAYYADSVKGRFTISRDNSKNTLYLQMNSLRAEDTAVYYCAKTRGRGLYDYVWGSKDYWGQGTLVTVSS
# VL: not shown
# B15: antigen-binding unit ABU-367 (antibody, V domains shown)
# VH: B4 VH with F27I, S35T, Y58F, N83S, Y99L, D101P, Y103G, F104M, Y106V, L112T
# VL: DIQLTQSPSFLSASVGDRVTITCRASQGISSDLAWYQQKPGKAPNLLIYAASTLQSGVPSRFSGSGSGTEFTLTISSLQPEDFATYYCQQLNSDLYTFGQGTKLEIK
# Target: spike protein (Spike, S protein) of SARS-CoV-2 (SARS-CoV-2, UniProt P0DTC2 14-1273)
# Experiment: cell-based or functional assay
row,Binder,"IC50, Plaque Reduction Neutralization Test (PRNT), SARS-CoV-2 euvirus [µg/mL]"
1,B1,0.8
2,B2,0.5

# Target: biotin-labeled SARS-COV-2 RBD domain (SARS-CoV-2, UniProt P0DTC2 319-541)
# Experiment: SPR, Biacore T200, biotin-RBD on SA chip, antibody as analyte
row,Binder,Kd [nM]
1,B3,< 10
2,B4,< 20
3,B5,< 10
4,B6,< 10
5,B7,< 10
6,B8,< 10
7,B9,< 10
8,B10,< 10
9,B11,< 1
10,B12,< 10
11,B13,< 1

# Target: S protein of the novel coronavirus SARS-CoV-2 (SARS-CoV-2, UniProt P0DTC2 14-1273)
# Experiment: cell-based or functional assay
row,Binder,"IC50 for neutralizing SARS-CoV-2 pseudovirus (Huh-7 cells, luciferase) [µg/mL]"
1,B3,< 0.5
2,B4,< 1
3,B5,< 0.1
4,B6,< 0.1
5,B7,< 0.5
6,B8,< 0.5
7,B9,< 0.1
8,B10,< 0.1
9,B11,< 0.1
10,B12,< 0.1
11,B13,< 0.1

# Target: biotin-labeled SARS-COV-2 RBD domain (SARS-CoV-2, UniProt P0DTC2 319-541)
# Experiment: SPR, Biacore T200, biotin-labeled RBD on SA chip, antibody as analyte, 1:1 model
row,Binder,Kd [nM]
1,B14,0.824
2,B15,0.18

# From patent publication US20230183322A1 (PEKING UNIVERSITY, published 2023)
